Kd, koff and kon data for four substances are collected here from PMC13625576.

Common to all, as to experiment: SPR
Test [1] concerns the target 14A Fab G32R mutant (mouse).
The target of test [2] is 16A Fab R32G mutant (mouse).
The target of test [3] is 16A Fab W34F mutant (mouse).

“Ser-glycosylated MUC1 peptide RPAPGS(GalNAc)TAPPAHG”: the Kd in test [1] was determined as 128 nM; in test [2] it was 168 nM; in test [3], 3910 nM. Besides, the off-rate constant (koff) in test [1] came out at 0.0229 s⁻¹; in test [2], 0.0294 s⁻¹; in test [3], 0.337 s⁻¹. In addition, the kon in test [1] amounted to 180000 M⁻¹ s⁻¹; in test [2], 174000 M⁻¹ s⁻¹; in test [3], 86200 M⁻¹ s⁻¹.
As for “Thr-glycosylated MUC1 peptide RPAPGST(GalNAc)APPAHG”, in test [1], the dissociation rate constant (koff) was determined as 0.00159 s⁻¹ and the kon came to 314000 M⁻¹ s⁻¹. For the same substance, in test [2], the Kd came to 22.9 nM, the koff was 0.00823 s⁻¹ and the kon stood at 359000 M⁻¹ s⁻¹. In test [3], this substance returned a Kd of 1220 nM, a koff of 0.09 s⁻¹ and a kon of 73600 M⁻¹ s⁻¹.
Consider “doubly glycosylated MUC1 peptide RPAPGS(GalNAc)T(GalNAc)APPAHG”, for which the values for the Kd in test [1] and in test [3] were 4.5 nM and 1130 nM, respectively. For the same substance, the koff in test [1] was 0.00137 s⁻¹; in test [2], 0.00183 s⁻¹; in test [3], 0.0901 s⁻¹. The association rate constant (kon) in test [1] was 303000 M⁻¹ s⁻¹; in test [2], 534000 M⁻¹ s⁻¹; in test [3], 79700 M⁻¹ s⁻¹.
Take nonglycosylated MUC1 peptide …: in test [1], the Kd was determined as 122 nM, the koff turned out to be 0.0233 s⁻¹ and the kon was found to be 191000 M⁻¹ s⁻¹. Also, in test [2], the Kd was 326 nM, the off-rate (koff) came to 0.0532 s⁻¹ and the kon turned out to be 163000 M⁻¹ s⁻¹. In test [3], this substance had a Kd of 3430 nM, an off-rate (koff) of 0.295 s⁻¹ and a kon of 86200 M⁻¹ s⁻¹.
